Experimental data published in PMC5291255.

Target: T1, nPfh1-K338A (His6-Trx-nPfh1-K338A-FLAG) (Schizosaccharomyces pombe, UniProt Q9UUA2 =MG+22-805, K338A;internal_change)
T1 sequence: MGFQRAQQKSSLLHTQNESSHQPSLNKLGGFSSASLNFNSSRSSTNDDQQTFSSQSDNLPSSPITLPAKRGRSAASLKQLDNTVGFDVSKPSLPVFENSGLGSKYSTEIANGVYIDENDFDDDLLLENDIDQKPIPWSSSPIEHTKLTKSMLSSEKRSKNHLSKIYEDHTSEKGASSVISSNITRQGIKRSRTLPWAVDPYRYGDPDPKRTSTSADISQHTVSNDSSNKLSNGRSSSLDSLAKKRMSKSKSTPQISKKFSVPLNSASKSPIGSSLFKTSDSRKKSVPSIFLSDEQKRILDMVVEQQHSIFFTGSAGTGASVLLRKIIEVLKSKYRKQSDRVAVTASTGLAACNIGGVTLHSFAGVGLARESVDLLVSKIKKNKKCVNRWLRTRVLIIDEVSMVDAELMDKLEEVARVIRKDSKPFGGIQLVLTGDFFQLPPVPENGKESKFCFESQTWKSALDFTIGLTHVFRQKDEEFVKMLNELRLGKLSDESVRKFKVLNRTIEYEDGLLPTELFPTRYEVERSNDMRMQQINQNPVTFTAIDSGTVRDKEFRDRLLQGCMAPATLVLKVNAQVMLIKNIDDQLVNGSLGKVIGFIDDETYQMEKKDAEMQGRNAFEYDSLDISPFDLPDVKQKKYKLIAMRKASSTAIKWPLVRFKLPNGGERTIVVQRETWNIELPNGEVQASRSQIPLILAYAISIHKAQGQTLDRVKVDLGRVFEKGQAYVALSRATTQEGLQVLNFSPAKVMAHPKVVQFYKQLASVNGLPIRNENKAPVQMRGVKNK
Test: EMSA

AAAAAAAAAA (ssDNA) [Poly(A)10]: no binding.
